Source: FireProtDB (doi:10.1073/pnas.96.20.11283)
Values joined by “and” are separate entries in the source; they are usually repeats but may differ in a detail not shown here. Equal values may be shown once.

Conditions: Homo sapiens, pH 4.2, 20 °C, Urea, CD, sodium acetate 2 mM, whole UniProt chain shown

B1: Alpha-lactalbumin wild type, P00709 (protein)
chain: MRFFVPLFLVGILFPAILAKQFTKCELSQLLKDIDGYGGIALPELICTMFHTSGYDTQAIVENNESTEYGLFQISNKLWCKSSQVPQSRNICDISCDKFLDDDITDDIMCAKKILDIKGIDYWLAHKALCTEKLEQWLCEKL
denaturant m value (Na2SO4 20 mM): 0.88 kcal/mol/M and 0.67 kcal/mol/M
denaturant midpoint (higher = more stable) (Na2SO4 20 mM): 4.34 M and 5.85 M
denaturant m value (NaCl 30 mM): 0.58 kcal/mol/M
denaturant midpoint (higher = more stable) (NaCl 30 mM): 5.43 M
denaturant midpoint (higher = more stable) (NaClO4 50 mM): 4.62 M and 6.06 M
